Data on 2 substances can be found in patent US20200355707A1.

Test [1] has as its target prostate specific antigen (ABIN572980) (UniProt P07288). The test is described as follows: in situ ellipsometry, PSA from buffer media.
Test [2] shares this target. The test is described as follows: in situ ellipsometry on rSAM-SA-anti-PSA sensor, buffer.
Test [3] has the same target. The test is described as follows: ellipsometry; PSA layer formed on rSAM-SA-biotinylated anti-PSA.
Test [4] shares this target. Kind of test: in situ ellipsometry; PSA spiked into 200-fold diluted human serum.
Test [5] has the same target. Kind of test: in situ ellipsometry; 100 pM antigen in borate buffer pH 8 on the antibody-modified rSAM.
Test [6] deals with biotinylated anti-human-serum-albumin antibody. Kind of test: ellipsometry; biotinylated anti-HSA (5 µM) layer on streptavidin-modified rSAM; binding through biotin.
The target in test [7] is biotinylated prostate specific antigen antibody (ABIN 192197). The test is described as follows: ellipsometry; biotinylated anti-PSA (5 µM) layer on streptavidin-modified rSAM; binding through biotin.

In turn, “biotinylated prostate specific antigen antibody (ABIN 192197)” registered a maximum surface coverage in test [1] of 2.4 mg/m^2. In test [2], this substance showed a detection limit of 40 fM. The substance further displayed a top layer thickness in test [3] of 4 nm. Further, the film thickness increase in test [4] and in test [5] was 4 nm each time.

Consider “streptavidine (from UniProt P22629 37-163)”, for which the top layer thickness amounted to 3.4 nm in test [6] and 4 nm in test [7].
